Biological target: the molecule itself
Experiment: SEC + native gel or EMSA

B1: eryD, erythritol-binding transcriptional repressor from Ochrobactrum spp. (natural protein)
chain: MADADDSLALRAAWLHFVAGMTQSAVAKRLGLPSVKAHRLIAKAVADGAVKVTIDGDITECIDLENRLADLYGLDYCEVAPDIGEEGLPLMALGHAGANFMRREIEHGDHEVIGIGHGRTLSAAVGYMPRVMANDLRFVSLLGGLTRNFAANPHDVMHRIAEKTGMPAYVMPVPFFANTAEDREVLLAQRGVTTVFDMGCRAELKIVGIGTVDAQAQLVTSGMIELGEVEEIANLGGVGEMLGHFFNANGQWLETALTGRTIAASVENADMSRIVALAGGLSKVDAIRAVLKSGRLYGLITDERTAKALIGQPNGK
notes: also called erythritol-responding genetic repressor eryD
B1 was tested, and the “stoichiometry N” value was 4.

Source: paper PMC10190533, “Engineering Escherichia coli to Utilize Erythritol as Sole Carbon Source” (Advanced Science, 2022)
